{
  "source": "patent US20250353931A1",
  "about": "(CHIMERIS UK, published 2025)",
  "binders": {"B1": {"name": "CM04P (anti-PEG _ anti-EpCAM) (bispecific antibody)", "chain": "QIQLVQSGPELKKPGETVKISCKASGYTFKNYGMNWVKQAPGKGLKWMGWINTYTGQPIYANDFKGRFAFSLETSASTAYLQINNLKNEDTATYFCARDWGPYWGQGTLVIVSASPNSASHSGSAPQTSSAPGSQNIMMTQSPSSLAVSAGEKVTVNCKSSQSVLYSSNQMNYLAWYQQKPGQSPKLLIYWASTRESGVPDRFTGSGSGTDFTLTISSVQTEDLAVYYCLQYLSSWTFGGGTKLEIKGGSSRSSSSGGGGSGGGGQVKLQQSGPELKKPGETVKISCKASGYTFTNYGMNWVKQAPGKGLKWMGWINTYTGESTYADDFKGRFAFSLETSASAAYLQINNLKNEDTATYFCARFAIKGDYWGQGTTVTVSSSPNSASHSGSAPQTSSAPGSQDIVLTQSPFSNPVTLGTSASISCRSTKSLLHSNGITYLYWYLQKPGQSPQLLIYQMSNLASGVPDRFSSSGSGTDFTLRISRVEAEDVGVYYCAQNLEIPRTFGGGTKLEIKGGGGSHHHHHHHH", "notes": "Intended as a negative control; also called αPEG/αEPCAM"}},
  "target": "CD3 on T cells (Jurkat T cells; primary human T cells) (human, UniProt P07766 23-207; P04234 22-171; P09693 23-182)",
  "sequence (P07766 23-207 limits assumed, chain 1 of 3)": "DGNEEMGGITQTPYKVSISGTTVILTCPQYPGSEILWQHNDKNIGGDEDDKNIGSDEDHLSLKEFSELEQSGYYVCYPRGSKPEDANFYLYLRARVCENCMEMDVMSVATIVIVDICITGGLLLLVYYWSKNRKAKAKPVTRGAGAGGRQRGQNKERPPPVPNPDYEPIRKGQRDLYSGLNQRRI",
  "sequence (P04234 22-171 limits assumed, chain 2 of 3)": "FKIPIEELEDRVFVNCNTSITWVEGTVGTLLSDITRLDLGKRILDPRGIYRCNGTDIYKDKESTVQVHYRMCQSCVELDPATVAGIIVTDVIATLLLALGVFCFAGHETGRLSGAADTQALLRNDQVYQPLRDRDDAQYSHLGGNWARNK",
  "sequence (P09693 23-182 limits assumed, chain 3 of 3)": "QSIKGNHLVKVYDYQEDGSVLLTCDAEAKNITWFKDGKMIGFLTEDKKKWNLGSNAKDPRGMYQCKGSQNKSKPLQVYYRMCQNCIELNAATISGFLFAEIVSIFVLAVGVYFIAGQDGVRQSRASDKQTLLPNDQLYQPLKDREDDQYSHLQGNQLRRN",
  "test": "flow cytometry on Jurkat T cells, APC-conjugated anti-His tag secondary antibody",
  "description": "Each multi-specific reagent was then screened for binding to Jurkat T cells. Jurkat T cells were plated into individual wells of a 96-well plate (˜100,000 cells per well in 200 ul ImmunoCult™-XF T Cell Expansion Medium (StemCell Technologies)). […] As a control, CHO cell culture medium alone was added. Following incubation for two hours, cells were washed and stained in 50 μl FACS buffer (PBS (Gibco)/2% FBS (LabTech)) containing a 1/100 dilution of an APC-conjugated anti-His tag secondary antibody (BioLegend). Cells were washed again and resuspended in 100 μl FACS buffer plus 0.1 μg/ml DAPI live/dead staining dye (Roche). Cell samples were run on a MACSQuant® Analyzer 10 Flow Cytometer and analyzed using the FlowJo (v10) software.",
  "data": [
    {"binder": "B1", "values": [
      {"measurement": "binding result", "result": "no binding (tested: 20 µl of CHO culture supernatant)"}
    ]}
  ]
}
